This is an account of results in patent US20240182561A1 (Regeneron, published 2024).

A value given as a limit tells only on which side of the number the result lay.

T1: mouse CACNG1 expressed on cells (mouse, UniProt O70578 1-223)
T1 construct: whole, on cells; Transfected in HEK293/mCACNG1; endogenous in C2C12 myotubes and wildtype mouse myofibers; Each row names the cell type under assay; also called mCACNG1; HEK293/mCACNG1
T1 sequence (looked up): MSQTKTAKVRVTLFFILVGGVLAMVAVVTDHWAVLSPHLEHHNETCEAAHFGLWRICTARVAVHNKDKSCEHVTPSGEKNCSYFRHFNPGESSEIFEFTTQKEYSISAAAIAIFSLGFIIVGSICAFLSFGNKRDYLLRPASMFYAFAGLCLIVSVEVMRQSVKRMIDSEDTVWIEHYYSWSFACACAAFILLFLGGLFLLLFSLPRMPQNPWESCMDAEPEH

B1: H2aM31929N (antibody, V domains shown)
VH: QVQLVESGGGVVQPGRSLRLSCTASGITFRNYGMHWVRQAPGKGLEWVAVMWYDGSNKYYADSVKGRFTISGDNSKVYLQMNSLRAEDTAVYYCARRGTIRTAAPFDYWGQGTLVTVSS
VL: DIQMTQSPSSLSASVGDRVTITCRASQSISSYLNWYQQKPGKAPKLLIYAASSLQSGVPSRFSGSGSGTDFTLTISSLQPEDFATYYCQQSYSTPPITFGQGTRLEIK
notes: also called H2aM31929N/REGN10728 (lot H2aM31929N-L1)
B2: H2aM31941N (antibody, mouse IgG1, kappa, V domains shown)
VH: QVQLVQSGAEVKKPGASVKVSCKASGYAFTTYGITWVRQAPGQGLEWMGWISAYNGNTNYAEKVQGRFTMTTDTSTNTAYMELRSLRSDDTAVYFCARKGHYGSGTYYNPFGFDFWGQGTMVTVSS
VL: EIMLMQSPGTLSLSPGERATLSCRASQSVSSSYLAWYQQKPGQAPRLLIYGASSRATDIPDRFSGSGSGTDFTLTISRLEPEDFAVYFCQQYYGSPWTFGQGTKVEIKR
notes: Both names are treated as one molecule; also called H1M31941N; lot H1M31941N-L1
B3: REGN10717 (antibody, human IgG4 S228P, kappa)
heavy: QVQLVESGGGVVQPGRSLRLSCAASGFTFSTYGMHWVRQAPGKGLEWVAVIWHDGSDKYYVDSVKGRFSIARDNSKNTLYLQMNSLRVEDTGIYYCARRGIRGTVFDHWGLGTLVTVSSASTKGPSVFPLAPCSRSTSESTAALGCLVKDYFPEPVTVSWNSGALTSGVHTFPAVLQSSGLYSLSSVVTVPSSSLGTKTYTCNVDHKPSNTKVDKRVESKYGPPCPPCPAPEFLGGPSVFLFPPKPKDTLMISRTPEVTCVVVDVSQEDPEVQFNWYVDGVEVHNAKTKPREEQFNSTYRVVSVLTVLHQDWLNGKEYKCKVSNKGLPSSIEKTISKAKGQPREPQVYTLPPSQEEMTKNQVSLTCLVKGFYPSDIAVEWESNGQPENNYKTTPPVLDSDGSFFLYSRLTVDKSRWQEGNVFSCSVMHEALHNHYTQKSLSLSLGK
light: DIQMTQSPSTLSASVGDRVTLTCRASQSISNKLAWYQQKPGKAPNLLIYKASNLESGVPSRFSGSGSGTEFTLTISSLQPDDFATYYCQQYNSYSWTFGQGTKVEIKRTVAAPSVFIFPPSDEQLKSGTASVVCLLNNFYPREAKVQWKVDNALQSGNSQESVTEQDSKDSTYSLSSTLTLSKADYEKHKVYACEVTHQGLSSPVTKSFNRGEC
notes: hIgG4
B4: H4H31265P2 (antibody, human IgG4 S228P, kappa, V domains shown)
VH: QVQLVESGGGVVQPGRSLRLSCTASGFTFRSYGMHWVRQAPGKGLEWVSVIWIDGNNIYYADSVKGRFTISRDNSKNTLYLQMDSLRAEDTAVYYCARRLAITSAAPFDYWGQGTLVTVSS
VL: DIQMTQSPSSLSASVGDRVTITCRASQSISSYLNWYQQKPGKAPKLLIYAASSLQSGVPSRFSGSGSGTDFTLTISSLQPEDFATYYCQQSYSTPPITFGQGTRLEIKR
notes: also called H4H31265P2/REGN5972 (lot H4H31265P2-L1)
B5: REGN10712 (antibody, human IgG4 S228P, lambda, V domains shown)
VH: QVQLVESGGGVVQPGRSLRLSCAASGFTFSTYGMYWVRQTPGKGLEWVTVISFDGNKKYYADSVKGRFTISRDNSKNTLFLQMNSLKTEDTAVYYCAKSSNWNYGSFDIWGQGTMVTVSS
VL: QSVLTQPPSVSGAPGQRVTISCTGSSSNIGAGYDVHWYQQLPGTAPRLLISYNSNRPSGVPDRFSGSKSGTSASLAITGLQAEDEADYYCQSYDRSLSGSVFGGGTQLTVLG
notes: hIgG4

For one assay, the target named is T1, mouse CACNG1 expressed on cells. Description: imaging cell binding, C2C12 mouse myotubes. On the procedure: (§1) HuSKM were seeded in collagen-coated 96-well plates (Greiner Bio-One #655956) at 8,500 cells/well and grown for 24 hours. The growth media was changed to MyoTonic Differentiation Media (Cook Myosite Cat #MD-5555) and replaced every 2 days. Myotubes were assayed after 6 days of differentiation. C2C12 mouse myoblasts were maintained in DMEM with 10% FBS and 1% penicillin-streptomycin supplement and grown in a 37° C. incubator with 5% CO₂. C2C12 cells were seeded in collagen-coated 96-well plates (Greiner Bio-One #655956) at 10,000 cells/well for the cell binding assay and 5,000 cells/well for the cell killing assay. After 24 hours, growth media was replaced with differentiation media (DMEM with 2% horse serum) and placed in a 37° C. incubator with 7.5% CO₂. C2C12 myotubes were assayed after 3 days of differentiation. HEK293/hCACNG1, HEK293/mCACNG1, and HEK293 cells were seeded at 10,000 cells (cell binding assay) or 2,000 (cell killing assay) per well in 96-well black collagen coated plates (Greiner Bio-One, cat #655956) in complete growth media and grown overnight at 37° C. in 5% CO₂.
(§2) Relative binding of anti-CACNG1 antibodies was assessed across the entire panel of cell lines via imaging analysis. […] After one wash with antibody dilution buffer, samples were fixed in CytoFix (BD Biosciences, Cat #554655) diluted 1:1 in PBS and supplemented with a 1:2000 dilution of Hoechst 33342 (Thermo, Cat #H1399) for 20 minutes on ice. Images were acquired with a 10× objective on the Opera Phenix (Perkin Elmer) and relative fluorescence units (RFU) was determined using Harmony software (Perkin Elmer).
Turning to B1, the S/N came to 1.2 fold and the binding result is recorded as “no binding (tested: 100 nM highest tested)”.
The corresponding values for B2 are 1.2 fold and “no binding (tested: 100 nM highest tested)”.
For B3, the EC50 is above 100 nM and the S/N amounted to 4.9 fold.
On to B4, for which the S/N amounted to 0.8 fold and the binding result is listed as “no binding (tested: 100 nM highest tested)”.

The target in the next assay is T2, human CACNG1 expressed on cells (human, UniProt Q06432 1-222).
T2 construct: also called hCACNG1; HEK293/hCACNG1
T2 sequence (Q06432 whole entry): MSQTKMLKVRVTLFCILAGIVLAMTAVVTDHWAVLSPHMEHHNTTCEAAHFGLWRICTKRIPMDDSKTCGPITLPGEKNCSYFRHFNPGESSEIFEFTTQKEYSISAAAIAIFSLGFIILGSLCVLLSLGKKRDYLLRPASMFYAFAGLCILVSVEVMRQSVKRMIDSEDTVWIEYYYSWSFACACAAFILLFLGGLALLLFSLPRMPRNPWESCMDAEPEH
Description: imaging cell binding, HuSKM myotubes. As to the method: as §1, §2
On to B1, for which the concentration giving a half-maximal response (EC50) worked out at 1.9 nM and the S/N was found to be 252 fold.
The corresponding values for B2 are 0.13 nM and 559 fold.
The like results for B3 were, in that order, 69 nM and 292 fold.
As for B4, the EC50 came to 3.3 nM and the S/N was 250 fold.

In the next assay the target is T2, human CACNG1 expressed on cells. Description: cell-based or functional assay.
As for B1, the “% KILL, indirect cell killing, HEK293/hCACNG1” value was 95%; the “% KILL, indirect cell killing, HuSKM” value came to 96.3%; the “EC50/IC50, indirect cell killing, HEK293/hCACNG1” value came out at 0.00277 nM; the “EC50/IC50, indirect cell killing, HuSKM” value came out at 0.031 nM.
The corresponding values for B2 are 95.4%, 91.2%, 0.00217 nM and 0.112 nM.
The like results for B3 were, in that order, 97%, 99.6%, 0.000806 nM and 0.0364 nM.
The like results for B4 were, in that order, 94.6%, 95.6%, 0.00245 nM and 0.56 nM.

The next assay addresses T1, mouse CACNG1 expressed on cells. Description: cell-based or functional assay.
Regarding B1, the “% KILL, indirect cell killing, C2C12” value came out at 7.5%; the “% KILL, indirect cell killing, HEK293/mCACNG1” value was 18.3%; the “EC50/IC50, indirect cell killing, C2C12” value is above 10 nM; the “EC50/IC50, indirect cell killing, HEK293/mCACNG1” value is above 1 nM.
The like results for B2 were, in that order, 0.4%, 4.9%, above 10 nM and above 1 nM.
Take B3: the “% KILL, indirect cell killing, C2C12” value was determined as 99.8%; the “% KILL, indirect cell killing, HEK293/mCACNG1” value was found to be 96%; the “EC50/IC50, indirect cell killing, C2C12” value amounted to 0.00356 nM; the “EC50/IC50, indirect cell killing, HEK293/mCACNG1” value is 0.00118 nM.
The like results for B4 were, in that order, 3.4%, 22.9%, above 10 nM and above 1 nM.

In another assay the target is T3, nanodisc embedded human CACNG1 expressed with a C-terminal PADRE-Flag-His tag (human, UniProt Q06432 1-222).
T3 construct: Captured on an anti-His Biacore surface; also called human CACNG1 nanodisc; CACNG1 nanodisc; not shown: C-terminal tag
T3 sequence (Q06432 whole entry): as above
Description: SPR, anti-His-captured nanodisc, 25 C. On the procedure:
Equilibrium dissociation constants (KD values) for nanodisc embedded human CACNG1 expressed with a C-terminal […] tag (human CACNG1 nanodisc; concentration 0.82 mg/ml) binding to purified anti-CACNG1 antibodies were determined using a real-time surface plasmon resonance biosensor technology with a Biacore T200 instrument. The CM5 Biacore sensor surface was derivatized by amine coupling with a monoclonal mouse anti-His antibody (Cytiva; Marlborough, MA). All Biacore binding studies were performed in a buffer composed of 0.01M HEPES, 0.15M NaCl, 1 mM CaCl₂, 0.5 mM MgCl₂, pH 7.4 (HBS-N++ running buffer). Different concentrations of anti-CACNG1 antibodies (ranging from 300 nM to 12 nM in 5-fold serial dilutions) prepared in HBS-N++ running buffer were injected over the captured human CACNG1 nanodisc at a flow rate of 30 μL/minute. Antibody association was monitored for 2 minutes while dissociation was monitored in HBS-N++ running buffer for 5 minutes. At the end of each cycle, the human CACNG1 nanodisc capture surface was regenerated using three 10 second injections of 10 mM Gly pH1.5. All binding kinetics experiments were performed at 25° C.
The specific SPR-Biacore sensorgrams were obtained by a double referencing procedure. The double referencing was performed by first subtracting the signal of each injection over a reference surface (anti-His) from the signal over the experimental surface (anti-His captured human CACNG1 nanodisc) thereby removing contributions from refractive index changes. In addition, running buffer injections were performed to allow subtraction of the signal changes resulting from the dissociation of captured antibodies from the coupled anti-His surface. Kinetic association (kₐ) and dissociation ([…]) rate constants were determined by fitting the real-time sensorgrams to a 1:1 binding model using Scrubber v2.0c curve fitting software. Binding dissociation equilibrium constants (KD) and dissociative half-lives (t %) were calculated from the kinetic rate constants as: […]
Regarding B1, binding was characterised by a dissociation constant (Kd) of 0.745 nM, the off-rate constant (koff) came out at 0.000559 s⁻¹, the on-rate constant (kon) is 750000 M⁻¹ s⁻¹ and the “mAb bound at 300 nM” value was determined as 25 RU. The molecule also returned a t1/2 of 20.7 min.
The corresponding values for B2 are 1.19 nM, 0.000406 s⁻¹, 342000 M⁻¹ s⁻¹, 19 RU and 28.4 min.
The corresponding values for B3 are 104 nM, 0.0304 s⁻¹, 294000 M⁻¹ s⁻¹, 7 RU and 0.4 min.
The like results for B5 were, in that order, 4.53 nM, 0.00332 s⁻¹, 733000 M⁻¹ s⁻¹, 31 RU and 3.5 min.
On to B4, for which the dissociation constant (Kd) is 81 nM, the koff was determined as 0.0084 s⁻¹, the kon was determined as 104000 M⁻¹ s⁻¹ and the “mAb bound at 300 nM” value was 14 RU. The molecule also had a t1/2 of 1.4 min.

The target in another assay is T2, human CACNG1 expressed on cells. The assay can be described thus: imaging cell binding, HEK293/hCACNG1. On the procedure:
as §1, §2
B1 came in with an EC50 of 6.2 nM and a S/N of 84 fold.
The corresponding values for B2 are 0.21 nM and 51.2 fold.
The corresponding values for B3 are above 100 nM and 77.4 fold.
The molecule B4 registered an EC50 of 11 nM and a S/N of 247 fold.

The target of another assay is T1, mouse CACNG1 expressed on cells. The assay can be described thus: imaging cell binding, C2C12 mouse myotubes. This is another data set of the same source. On the procedure:
as §1, §2
Molecule B5 returned an EC50 above 100 nM and a S/N of 8.6 fold.

The target of the next assay is T2, human CACNG1 expressed on cells. Description: imaging cell binding, HuSKM myotubes. This is another data set of the same source. As to the method: as §1, §2
As for B5, the midpoint of the response, the EC50, lay at 0.053 nM and the S/N came out at 102 fold.

The next assay addresses T1, mouse CACNG1 expressed on cells. The assay can be described thus: imaging cell binding, HEK293/mCACNG1. As to the method:
as §1, §2
Regarding B1, the S/N worked out at 1 fold.
Same read-out and setting: next, B2: 1.4 fold.
With B3, the concentration giving a half-maximal response (EC50) is above 100 nM and the S/N worked out at 23.6 fold.
In the case of B4, the S/N was 1.2 fold.
